# Assay results published in patent US20250179187A1, “ANTI PD-L2 ANTIBODY” (REJUVERON SENESCENCE THERAPEUTICS AG, priority 2022, published 2025).
# T1: recombinant mPD-L2 (Mus musculus, UniProt Q9WUL5)
# T1 construct: purchased Sino Biological 50804-M08H-B
# T1 sequence (Q9WUL5 20-247): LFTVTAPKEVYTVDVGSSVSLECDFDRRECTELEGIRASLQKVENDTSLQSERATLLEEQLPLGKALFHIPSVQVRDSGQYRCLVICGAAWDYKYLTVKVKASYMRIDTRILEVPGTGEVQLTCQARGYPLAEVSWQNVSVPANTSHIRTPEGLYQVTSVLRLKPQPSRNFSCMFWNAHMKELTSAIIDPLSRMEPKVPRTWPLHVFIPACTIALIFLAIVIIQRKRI
# B1: VH0/VK0-mIgG1: parental murine anti-PD-L2 antibody on mIgG1 backbone; SEQ ID NO: 21/SEQ ID NO: 22 (antibody, V domains shown)
# VH: QVQLQQSGAELVRPGTSVKVSCKASGYAFSNYFIEWVKQRPGQGLEWIGLNIPGSGGSNYAEKFKGKATLTADKSSSTAYMQLSSLTSEDSAVYFCARRRLPPDWYFDVWGTGTTVTVSS
# VL: DVVMTQTPLSLPVSLGDQASISCRSSQSLVHSDGNTYLHWYLQKPGQSPKLLIYKVSNRFSGVPDRFSGSGSGTDFTLKISRVEAEDLGVYFCSQSTHVPWTFGGGTKLEIK
# How the values were obtained:
# recombinant mPD-L2 = target: T1, recombinant mPD-L2; experiment: ELISA for mPDL2; type: binding
# Procedure: ELISA plates were coated with recombinant mPDL2 (Sino Biological, cat 50804-M08H-B, lot LC10SE0706) at a concentration of 2 micrograms/milliliter at 4° C. for 15 h. Coating was then washed two times with PBS and blocked with 0.5% bovine serum albumin (BSA)/PBS at 37° C. for one hour. Blocking was removed and appropriate antibody concentrations diluted in 0.5% BSA/PBS for 1 hour at 37° C. Plates were then washed five time in PBS and a goat anti-mouse-HRP (Jackon Immuno Research cat #115-035-071) diluted in 0.5% BSA/PBS was added and incubated for 30 minutes at 37° C. Plates were washed again five times with PBS and TMB substrate (Medicago cat #10-9405) was added for 30 minutes at 37° C. in the dark. Reaction was stopped with 1N HCl and read and optical densities read on a standard spectrophotometer plate reader at […].
# PyMT spontaneous tumors = experiment: Spontaneous mouse PyMT breast tumor model with tumor immunostaining; type: in vivo
# Procedure: Hemizygous transgenic PyMT mice were allowed to develop tumors to an average size of around 200 cubic millimeters, usually around 9 weeks, at which time treatment was initiated, with N=3-5 per treatment group. Doxorubicin (Aurovitas) was administered intraperitoneally once per week at 4 mg/kg and antibodies were administered every three days at a dose of 10 mg/kg during four weeks or 3 mg/kg where noted. Vehicle-treated animals received only vehicle solvent for doxorubicin as a no-treatment control. Tumors were measured with a standard caliper once per week. At the end of the study, tumors were resected and further analyzed by immunohistochemistry.
# For the depleting study, the same treatment regimen described above was carried out but in combination with CD4 or CD8-depleting antibodies (BioXCell), administered on day −1, day 0 and weekly thereafter at a dose of 200 micrograms per animal.
# For double SA-beta-galactosidase/PD-L2 staining, following resection, tumors were fixed in 2% paraformaldehyde and 0.2% glutaldehyde in PBS for 2 hours at room temperature. Samples were washed in PBS for 15 minutes then stained by standard procedures for SA-beta-galactosidase activity overnight. Following this, tumors were washed in PBS for 15 minutes, dehydrated in 70% ethanol and embedded in paraffin, sectioned, and stained for PDL2 with an anti-PDL2 antibody (Cell Signaling, D6L5A cat #49189) by standard immunohistochemistry techniques. To quantify the number of cells double positive for SA-beta-galactosidase and PDL2, 3 random fields from 2 mammary glands from each animal in each treatment group was analyzed with Image J software. Staining for CD3, CD4 and CD8 was also carried out by standard immunohistochemistry techniques on paraffin-embedded material and quantified according to pixel density using Image J software.
molecule,measurement,setting,value
B1,cross-reactivity to recombinant mPD-L2,recombinant mPD-L2,shows cross-reactivity
same,final tumor volume,"PyMT spontaneous tumors; 3 mg/kg antibody with doxorubicin over four weeks, compared to doxorubicin alone or TY-25 and doxorubicin",greater reduction in final tumor volume
same,tumor growth,PyMT spontaneous tumors; combination with doxorubicin vs doxorubicin and mIgG1 control,inhibited tumor growth more
same,"relative numbers of CD3+, CD8+ and CD4+ cells in PyMT spontaneous tumors","PyMT spontaneous tumors; combination with doxorubicin, compared to vehicle or doxorubicin-only treated mice (p<0.05)",increased relative numbers
same,inhibition of tumor progression under depleting antibodies against CD4+ cells,PyMT spontaneous tumors; doxorubicin and antibody plus CD4-depleting antibodies,only slightly relieved this inhibition
same,inhibition of tumor progression under depleting antibodies against CD8+ cells,PyMT spontaneous tumors; doxorubicin and antibody plus CD8-depleting antibodies,relieve the inhibition
same,cells double-positive for PD-L2 and SA-βGal in PyMT tumors,"PyMT spontaneous tumors; immunohistochemistry, antibody co-treated with doxorubicin vs Vehicle or Doxorubicin+mIgG1 (p<0.05)",significantly lower
